Results on one substance are retold here after PMC8750077.

The target of test [1] is HPV18-E6 (4C-4S) version of E6 fused with His-tag (human papillomavirus type 18 (HPV18)) (UniProt P06463).
The target is the same in test [2]. This is another data set of the same source.

UniProt P06463, sequence (P06463 whole entry, the tested form may be a part): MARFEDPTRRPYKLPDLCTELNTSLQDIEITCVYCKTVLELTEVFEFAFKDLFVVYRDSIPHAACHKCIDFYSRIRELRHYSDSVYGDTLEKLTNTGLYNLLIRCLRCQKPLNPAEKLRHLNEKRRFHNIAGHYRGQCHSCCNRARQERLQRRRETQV

Regarding “untagged USP46 (from UniProt P62068 1-366) (enzyme)”, in test [1], the deubiquitinase activity of recombinant USP46 (singly purified His-USP46, 70 nM) on the ubiquitin substrate after simple mixing with recombinant HPV-E6 (4 uM); USP46 alone 0.39 FU/min was 0.58 FU/min. Besides, in test [2], the deubiquitinase activity on Ub-AMC of the E6:USP46 complex purified on Ni-NTA and concentrated (USP46-UAF1 complex in the same assay: 0.83 FU/min) is 0.78 FU/min.
